Results reported in US20230192897A1 (NUMAB THERAPEUTICS, published 2023).
Where “and” joins values, the source holds several entries; their conditions need not be identical. Equal entries are not always repeated. Where two headings read alike, the source gives them in different places. Blank lines part the entries; values can stand above or below the molecule they belong to.

Columns and labels:
[1] = molecular target: T1, CD137 on Jurkat NFkB reporter cells (human, UniProt Q07011 24-255); assay: cell-based or functional assay
[2] = molecular target: T1, CD137 on Jurkat NFkB reporter cells; assay: cell-based or functional assay; remark: listed apart in the source
[3] = molecular target: T2, Fc tagged human PDL1 (human, UniProt Q9NZQ7 19-239); assay: SPR
T2 construct: Bought (Sino Biological, cat. 10084-H02H); captured on the SPR chip; also called PDL1-Fc chimeric protein
Summary of the method: (§1)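 Kinetics were fitted with a one-to-one Langmuir model to give apparent ka, kd and KD. Binders at 0.12-90 nM (three-fold series) flowed 3 min, with 10 min dissociation and 3 M MgCl₂ regeneration, on a Biacore T200.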

[4] = molecular target: cynomolgus CD137-Fc chimeric protein (cynomolgus monkey, UniProt A9YYE7 24-186); assay: SPR
Summary of the method: as §1

[5] = molecular target: T3, mouse CD137-Fc chimeric protein (mouse, UniProt P20334 24-187, limits assumed); assay: SPR
T3 sequence (looked up): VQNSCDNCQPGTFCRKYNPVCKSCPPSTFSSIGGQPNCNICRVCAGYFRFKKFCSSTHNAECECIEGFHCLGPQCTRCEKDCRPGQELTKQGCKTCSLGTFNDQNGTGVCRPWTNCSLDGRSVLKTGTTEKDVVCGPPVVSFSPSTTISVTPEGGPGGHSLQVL
Summary of the method: as §1

[6] = molecular target: T4, Fc tagged human CD137 (human, UniProt Q07011 24-186); assay: SPR
T4 construct: also called CD137-Fc chimeric protein
Summary of the method: as §1

[7] = molecular target: human PDL1 on cells (human, UniProt Q9NZQ7 19-290); assay: cell-based or functional assay
[8] = molecular target: T1, CD137 on Jurkat NFkB reporter cells; assay: cell-based or functional assay; remark: listed apart in the source
[9] = molecular target: T1, CD137 on Jurkat NFkB reporter cells; assay: cell-based or functional assay; remark: listed apart in the source
[10] = molecular target: T1, CD137 on Jurkat NFkB reporter cells; assay: cell-based or functional assay; remark: listed apart in the source
[11] = molecular target: T1, CD137 on Jurkat NFkB reporter cells; assay: cell-based or functional assay; remark: listed apart in the source
[12] = molecular target: T1, CD137 on Jurkat NFkB reporter cells; assay: cell-based or functional assay; remark: listed apart in the source
[13] = molecular target: T1, CD137 on Jurkat NFkB reporter cells; assay: cell-based or functional assay; remark: listed apart in the source
[14] = molecular target: T1, CD137 on Jurkat NFkB reporter cells; assay: cell-based or functional assay; remark: listed apart in the source
[15] = molecular target: T1, CD137 on Jurkat NFkB reporter cells; assay: cell-based or functional assay; remark: listed apart in the source
[16] = molecular target: T5, biotinylated human PDL1 (human, UniProt Q9NZQ7 19-238, limits assumed, biotinylated); assay: competition ELISA B7.1/PDL1
T5 construct: also called biotinylated PDL1
Summary of the method: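 IC₅₀ was derived by four-parameter logistic fitting of reference-subtracted A450/690 readings. The signal came from streptavidin-polyHRP40 (10 ng/ml) with a 6-minute TMB reaction detecting biotinylated PDL1 bound to the plate. Pre-mixed samples sat 1 h at RT before a 1.5 h plate incubation.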

[17] = molecular target: T5, biotinylated human PDL1; assay: competition ELISA PD-1/PDL1

EC50, NFkB reporter, CHO-PDL1 [1]: 0.0795 µg/mL and 0.104 µg/mL and 0.0865 µg/mL
Top of curve fit, NFkB reporter, CHO-PDL1 [1]: 100
EC50, NFkB reporter, CHO-PDL1 [2]: 0.0791 µg/mL
EC50, NFkB reporter, CHO-PDL1, 6 h [2]: 0.0565 µg/mL
EC50, NFkB reporter, CHO-PDL1, 6 h, +HSA [2]: 0.0777 µg/mL
EC50, NFkB reporter, CHO-PDL1, 24 h [2]: 0.0466 µg/mL
EC50, NFkB reporter, CHO-PDL1, 24 h, +HSA [2]: 0.0782 µg/mL
EC50, NFkB reporter, HCC827 with IFNg [2]: 0.114 µg/mL and 0.145 µg/mL and 0.108 µg/mL
EC50, NFkB reporter, HCC827 with IFNg, 24 h [2]: 0.0528 µg/mL
EC50, NFkB reporter, HCC827 without IFNg [2]: 0.212 µg/mL and 0.11 µg/mL and 0.112 µg/mL
EC50, NFkB reporter, HCC827 without IFNg, 24 h [2]: 0.0475 µg/mL
Top of curve fit, NFkB reporter, CHO-PDL1 [2]: 102
Top of curve fit, NFkB reporter, HCC827 with IFNg [2]: 100
Top of curve fit, NFkB reporter, HCC827 without IFNg [2]: 100
Molecule: urelumab (antibody)

koff [3]: 0.00014 s⁻¹
kon [3]: 2.1e+06 M⁻¹ s⁻¹
Kd [4]: 2.1 nM
koff [4]: 0.0007 s⁻¹
kon [4]: 340000 M⁻¹ s⁻¹
Kd [5]: 600 nM
koff [5]: 0.18 s⁻¹
kon [5]: 290000 M⁻¹ s⁻¹
koff [6]: 0.00076 s⁻¹
kon [6]: 240000 M⁻¹ s⁻¹
IC50 (ng/ml), NF-AT potency assay [7]: 137 ng/mL
rel. IC50 (avelumab/test) [7]: 0.28 fold
EC50, NFkB reporter, CHO-PDL1 [8]: 0.0117 µg/mL
EC50, NFkB reporter, CHO-PDL1 [9]: 0.00513 µg/mL and 0.00486 µg/mL and 0.0063 µg/mL
EC50, NFkB reporter, HCC827 without IFNg [10]: 0.0115 µg/mL and 0.0131 µg/mL and 0.013 µg/mL
EC50, NFkB reporter, HCC827 with IFNg [11]: 0.00927 µg/mL and 0.00888 µg/mL and 0.00923 µg/mL
EC50, NFkB reporter, CHO-PDL1, 6 h [12]: 0.00784 µg/mL
EC50, NFkB reporter, CHO-PDL1, 6 h, +HSA [12]: 0.00792 µg/mL
EC50, NFkB reporter, CHO-PDL1, 24 h [13]: 0.0138 µg/mL
EC50, NFkB reporter, CHO-PDL1, 24 h, +HSA [13]: 0.0149 µg/mL
EC50, NFkB reporter, HCC827 with IFNg, 24 h [14]: 0.00751 µg/mL
EC50, NFkB reporter, HCC827 without IFNg, 24 h [14]: 0.00952 µg/mL
IC50 (ng/ml), NFkB reporter, CHO-PD-L1 [15]: 11.7 ng/mL
IC50 (ng/ml), NFkB reporter, HCC827 + IFNg [15]: 8.88 ng/mL
IC50 (ng/ml), NFkB reporter, HCC827 - IFNg [15]: 13.1 ng/mL
max. activation (%), NFkB reporter, CHO-PD-L1 [15]: 499%
max. activation (%), NFkB reporter, HCC827 + IFNg [15]: 134%
max. activation (%), NFkB reporter, HCC827 - IFNg [15]: 111%
rel. IC50 (urelumab/test), NFkB reporter, CHO-PD-L1 [15]: 6.75 fold
rel. IC50 (urelumab/test), NFkB reporter, HCC827 + IFNg [15]: 16.3 fold
rel. IC50 (urelumab/test), NFkB reporter, HCC827 - IFNg [15]: 8.42 fold
IC50 [16]: 0.0122 µg/mL
rel. IC50 (IC50 avelumab/IC50 test) [16]: 0.59 fold
IC50 [17]: 0.00835 µg/mL
rel. IC50 (IC50 avelumab/IC50 test) [17]: 0.17 fold
B1: PRO885 (bispecific antibody)
chain: DIQMTQSPSSLSASVGDRVTITCQASQSINDYLAWYQQKPGKAPKLLIYKASTLASGVPSRFSGSGSGTDFTLTISSLQPEDFATYYCQQGYIITDIDNVFGTGTKVTVLGGGGGSQVQLQESGPGLVKPSETLSLTCKVSGFSFSNSYWICWIRQPPGKGLEWIGCTFVGSSDSTYYANWAKGRVTISVDSSKNQFSLKLSSVTAADTAVYYCARHPSDAVYGYANNLWGQGTLVTVSSGGGGSGGGGSGGGGSGGGGSIQMTQSPSSLSASVGDRVTITCQASQSINNVLAWYQQKPGKAPKLLIYRASTLASGVPSRFSGSGSGTDFTLTISSLQPEDFATYYCQSSYGNYGDFGTGTKVTVLGGGGGSQVQLQESGPGLVKPSETLSLTCKVSGFSFSSGYDMCWIRQPPGKGLEWIGCVVAGSVDITYYASWAKGRVTISVDSSKNQFSLKLSSVTAADTAVYYCARKDAYSDAFNLWGQGTLVTVSS
notes: scDb anti-PDL1 x CD137; also called 38-02-A04 sc01 scDb-i/33-03-G02 sc01 scDb-o
